Consider five molecules from patent publication US8119766 (UNIVERSITY OF IOWA RESEARCH FOUNDATION, dated 2012).

Assay [1] has as its target full-length α-DG-IgG Fc fusion protein (DGFc5), secreted form from conditioned medium (human). The assay can be described thus: solid-phase binding of laminin-1, nonlinear regression (FIG. 8C).
The target in assay [2] is LARGE-modified DGFc5 (human). The assay can be described thus: solid-phase laminin-1 binding assay, nonlinear regression (FIG. 9C).
The target in assay [3] is full-length α-DG-IgG Fc fusion protein (DGFc5), secreted form from conditioned medium (human). The assay is described as above.
Assay [4] addresses T1, laminin-1 (mouse, UniProt P19137 25-3083; P02469 22-1786; P02468 34-1607).
T1 construct: also called mouse EHS laminin-1; biotinylated laminin-1
Description: laminin overlay.

Assay [5] has as its target T1, laminin-1. Description: laminin-1 overlay, with LARGE co-expression.
Assay [6] has as its target T1, laminin-1. The assay can be described thus: solid-phase binding of laminin-1, nonlinear regression (FIG. 8C).

As to “laminin-1 (from UniProt P19137 25-3083; P02469 22-1786; P02468 34-1607) (ligand)”, the dissociation constant Kd (usually the equilibrium constant for the complex coming apart) in assay [1] was found to be 1.1 nM; in assay [2], 1.6 nM; in assay [3], 3.1 nM.

B1: DGFc2 prepared from cell lysate (Fc fusion, UniProt Q28685 30-316, looked up)
chain: HWPSEPSEAVRDWENQLEASMHSVLSDLHEALPTVVGIPDGTAVVGRSFRVTIPTDLIGSSGEVIKVSTAGKEVLPSWLHWDPQSHTLEGLPLDTDKGVHYISVSAAQLDANGSHIPQTSSVFSIEVYPEDHSEPQSVRAASPDLGEAAASACAAEEPVTVLTVILDADLTKMTPKQRIDLLHRMQSFSEVELHNMKLVPVVNNRLFDMSAFMAGPGNAKKVVENGALLSWKLGCSLNQNSVPDIRGVEAPAREGTMSAQLGYPVVGWHIANKKPPLPKRIRRQIHA
notes: domain: N-terminal domain; About 65 kDa; also called DGFc2 (cell lysate); not shown: IgG Fc portion
Turning to B1, in assay [4], the binding result is “no binding”.

B2: secreted DGFc2 from cells cultured with CMK (Fc fusion, UniProt Q28685 30-316, looked up)
chain: HWPSEPSEAVRDWENQLEASMHSVLSDLHEALPTVVGIPDGTAVVGRSFRVTIPTDLIGSSGEVIKVSTAGKEVLPSWLHWDPQSHTLEGLPLDTDKGVHYISVSAAQLDANGSHIPQTSSVFSIEVYPEDHSEPQSVRAASPDLGEAAASACAAEEPVTVLTVILDADLTKMTPKQRIDLLHRMQSFSEVELHNMKLVPVVNNRLFDMSAFMAGPGNAKKVVENGALLSWKLGCSLNQNSVPDIRGVEAPAREGTMSAQLGYPVVGWHIANKKPPLPKRIRRQIHA
notes: domain: N-terminal domain; Migrated at the same size (~65 kDa) as DGFc2 from cell lysate; also called DGFc2 (CMK-treated, secreted); not shown: IgG Fc portion
Turning to B2, in assay [4], the binding result is recorded as “no binding”.

B3: DGFc6, secreted form (Fc fusion, UniProt Q28685 317-653, looked up)
chain: TPTPVTAIGPPTTAIQEPPSRIVPTPTSPAIAPPTETMAPPVRDPVPGKPTVTTRTRGAIIQTPTLGPIQPTRVSDAGTVVSGQIRATVTIPGYVEPTAVATPPTTTTKKPRVSTPKPATPSTDSSATTTRRPTKKPRTPRPVPRVTTKAPITRLETASPPTRIRTTTSGVPRGGEPNQRPELKNHIDRVDAWVGTYFEVKIPSDTFYDKEDTTTDKLKLTLKLREQQLVGEKSWVQFNSNSQLMYGLPDSSHVGKHEYFMHATDKGGLSAVDAFEIHVHKRPQGDKAPARFKAKFVGDPAPVVNDIHKKIALVKKLAFAFGDRNCSTVTLQNITRG
notes: domain: mucin-like domain and C-terminal domain; Tested with and without LARGE co-expression; not shown: IgG Fc portion
Consider B3, for which the binding result in assay [5] was “no binding”.

B4: native α-DG (receptor, rabbit, UniProt Q28685 30-653, looked up)
chain: HWPSEPSEAVRDWENQLEASMHSVLSDLHEALPTVVGIPDGTAVVGRSFRVTIPTDLIGSSGEVIKVSTAGKEVLPSWLHWDPQSHTLEGLPLDTDKGVHYISVSAAQLDANGSHIPQTSSVFSIEVYPEDHSEPQSVRAASPDLGEAAASACAAEEPVTVLTVILDADLTKMTPKQRIDLLHRMQSFSEVELHNMKLVPVVNNRLFDMSAFMAGPGNAKKVVENGALLSWKLGCSLNQNSVPDIRGVEAPAREGTMSAQLGYPVVGWHIANKKPPLPKRIRRQIHATPTPVTAIGPPTTAIQEPPSRIVPTPTSPAIAPPTETMAPPVRDPVPGKPTVTTRTRGAIIQTPTLGPIQPTRVSDAGTVVSGQIRATVTIPGYVEPTAVATPPTTTTKKPRVSTPKPATPSTDSSATTTRRPTKKPRTPRPVPRVTTKAPITRLETASPPTRIRTTTSGVPRGGEPNQRPELKNHIDRVDAWVGTYFEVKIPSDTFYDKEDTTTDKLKLTLKLREQQLVGEKSWVQFNSNSQLMYGLPDSSHVGKHEYFMHATDKGGLSAVDAFEIHVHKRPQGDKAPARFKAKFVGDPAPVVNDIHKKIALVKKLAFAFGDRNCSTVTLQNITRG
modifications: native glycosylation; sites not stated
notes: mature; also called native α-dystroglycan purified from rabbit skeletal muscle
For the molecule B4, the affinity in assay [6], expressed as Kd, was 0.4 nM.
